This note sets out measurements from patent US20090318349A1 (Novo Nordisk, published 2009).

The chains are these.
B1: AlaPro-mTGase from S. mobaraensis (enzyme)
chain: APDSDDRVTPPAEPLDRMPDPYRPSYGRAETVVNNYIRKWQQVYSHRDGRKQQMTEEQREWLSYGCVGVTWVNSGQYPTNRLAFASFDEDRFKNELKNGRPRSGETRAEFEGRVAKESFDEEKGFQRAREVASVMNRALENAHDESAYLDNLKKELANGNDALRNEDARSPFYSALRNTPSFKERNGGNHDPSRMKAVIYSKHFWSGQDRSSSADKRKYGDPDAFRPAPGTGLVDMSRDRNIPRSPTSPGEGFVNFDYGWFGAQTEADADKTVWTHGNHYHAPNGSLGAMHVYESKFRNWSEGYSDFDRGAYVITFIPKSWNTAPDKVKQGWP
B2: GlyPro-mTGase from S. ladakanum (enzyme)
chain: GPDSDERVTPPAEPLDRMPDPYRPSYGRAETIVNNYIRKWQQVYSHRDGRKQQMTEEQREWLSYGCVGVTWVNSGQYPTNRLAFAFFDEDKYKNELKNGRPRSGETRAEFEGRVAKDSFDEAKGFQRARDVASVMNKALENAHDEGAYLDNLKKELANGNDALRNEDARSPFYSALRNTPSFKDRNGGNHDPSKMKAVIYSKHFWSGQDRSGSSDKRKYGDPEAFRPDRGTGLVDMSRDRNIPRSPTSPGESFVNFDYGWFGAQTEADADKTVWTHGNHYHAPNGSLGAMHVYESKFRNWSDGYSDFDRGAYVVTFVPKSWNTAPDKVKQGWP
B3: GlyPro-mTGase_Y75F from S. ladakanum (enzyme)
chain: GPDSDERVTPPAEPLDRMPDPYRPSYGRAETIVNNYIRKWQQVYSHRDGRKQQMTEEQREWLSYGCVGVTWVNSGQFPTNRLAFAFFDEDKYKNELKNGRPRSGETRAEFEGRVAKDSFDEAKGFQRARDVASVMNKALENAHDEGAYLDNLKKELANGNDALRNEDARSPFYSALRNTPSFKDRNGGNHDPSKMKAVIYSKHFWSGQDRSGSSDKRKYGDPEAFRPDRGTGLVDMSRDRNIPRSPTSPGESFVNFDYGWFGAQTEADADKTVWTHGNHYHAPNGSLGAMHVYESKFRNWSDGYSDFDRGAYVVTFVPKSWNTAPDKVKQGWP
B4: GlyPro-mTGase_Y62H_Y75F from S. ladakanum (enzyme)
chain: GPDSDERVTPPAEPLDRMPDPYRPSYGRAETIVNNYIRKWQQVYSHRDGRKQQMTEEQREWLSHGCVGVTWVNSGQFPTNRLAFAFFDEDKYKNELKNGRPRSGETRAEFEGRVAKDSFDEAKGFQRARDVASVMNKALENAHDEGAYLDNLKKELANGNDALRNEDARSPFYSALRNTPSFKDRNGGNHDPSKMKAVIYSKHFWSGQDRSGSSDKRKYGDPEAFRPDRGTGLVDMSRDRNIPRSPTSPGESFVNFDYGWFGAQTEADADKTVWTHGNHYHAPNGSLGAMHVYESKFRNWSDGYSDFDRGAYVVTFVPKSWNTAPDKVTQGWP
B5: GlyPro-mTGase_Y75N from S. ladakanum (enzyme)
chain: GPDSDERVTPPAEPLDRMPDPYRPSYGRAETIVNNYIRKWQQVYSHRDGRKQQMTEEQREWLSYGCVGVTWVNSGQNPTNRLAFAFFDEDKYKNELKNGRPRSGETRAEFEGRVAKDSFDEAKGFQRARDVASVMNKALENAHDEGAYLDNLKKELANGNDALRNEDARSPFYSALRNTPSFKDRNGGNHDPSKMKAVIYSKHFWSGQDRSGSSDKRKYGDPEAFRPDRGTGLVDMSRDRNIPRSPTSPGESFVNFDYGWFGAQTEADADKTVWTHGNHYHAPNGSLGAMHVYESKFRNWSDGYSDFDRGAYVVTFVPKSWNTAPDKVKQGWP
B6: GlyPro-mTGase_Y62H_Y75N from S. ladakanum (enzyme)
chain: GPDSDERVTPPAEPLDRMPDPYRPSYGRAETIVNNYIRKWQQVYSHRDGRKQQMTEEQREWLSHGCVGVTWVNSGQNPTNRLAFAFFDEDKYKNELKNGRPRSGETRAEFEGRVAKDSFDEAKGFQRARDVASVMNKALENAHDEGAYLDNLKKELANGNDALRNEDARSPFYSALRNTPSFKDRNGGNHDPSKMKAVIYSKHFWSGQDRSGSSDKRKYGDPEAFRPDRGTGLVDMSRDRNIPRSPTSPGESFVNFDYGWFGAQTEADADKTVWTHGNHYHAPNGSLGAMHVYESKFRNWSDGYSDFDRGAYVVTFVPKSWNTAPDKVKQGWP
B7: GlyPro-mTGase_Y75A from S. ladakanum (enzyme)
chain: GPDSDERVTPPAEPLDRMPDPYRPSYGRAETIVNNYIRKWQQVYSHRDGRKQQMTEEQREWLSYGCVGVTWVNSGQAPTNRLAFAFFDEDKYKNELKNGRPRSGETRAEFEGRVAKDSFDEAKGFQRARDVASVMNKALENAHDEGAYLDNLKKELANGNDALRNEDARSPFYSALRNTPSFKDRNGGNHDPSKMKAVIYSKHFWSGQDRSGSSDKRKYGDPEAFRPDRGTGLVDMSRDRNIPRSPTSPGESFVNFDYGWFGAQTEADADKTVWTHGNHYHAPNGSLGAMHVYESKFRNWSDGYSDFDRGAYVVTFVPKSWNTAPDKVKQGWP

Chain of wild type human growth hormone (P01241 27-217): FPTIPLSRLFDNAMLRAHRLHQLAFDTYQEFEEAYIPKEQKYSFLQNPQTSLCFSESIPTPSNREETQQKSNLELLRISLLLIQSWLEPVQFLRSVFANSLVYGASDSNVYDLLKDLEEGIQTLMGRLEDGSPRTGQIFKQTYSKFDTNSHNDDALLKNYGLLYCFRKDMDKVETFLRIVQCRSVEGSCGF

The assay concerns the target wild type human growth hormone (human, UniProt P01241 27-217). As to the kind of experiment: cell-based or functional assay.
Take B1: the “RS (relative selectivity)” value was 1 and the “Selectivity (Q141/Q40), CE” value worked out at 5.7.
Consider B2, for which the “RS (relative selectivity)” value worked out at 1.8 and the “Selectivity (Q141/Q40), CE” value is 10.3.
The matching figures for B3: 5.1 and 29.1.
For B4, the “RS (relative selectivity)” value was determined as 6.4 and the “Selectivity (Q141/Q40), CE” value stood at 36.2.
Consider B5, for which the “RS (relative selectivity)” value is 3.4 and the “Selectivity (Q141/Q40), CE” value came out at 19.3.
In the case of B6, the “RS (relative selectivity)” value is 4.6 and the “Selectivity (Q141/Q40), CE” value came to 26.3.
Take B7: the “RS (relative selectivity)” value worked out at 3 and the “Selectivity (Q141/Q40), CE” value amounted to 17.3.
